{"source": "the nanobody polyreactivity screen of Harvey et al. (2022)", "data": [{"assay": "yeast display, Sf9 membrane polyspecificity reagent, FACS + sequencing; frameworks hold sequencing errors", "outline": "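Galactose-induced (36–48 hours) yeast carrying a synthetic nanobody display library were exposed to 10% biotinylated, detergent-solubilized Sf9 membrane reagent at 4 °C for 1 hour. FACS followed streptavidin microbead enrichment, using low and high (top ~1%) gates for expression (anti-HA) and reagent binding (streptavidin). Colony PCR, MiSeq 2 × 250 sequencing and CDR-length filtering followed. Labels for polyreactivity reflect the gate of origin.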", "values": [{"sequence": "QVQLEESGGGLVQAGGSLRIRCAASGSTFVGYAMGWYRQAPGKERELVAAITSSGGRTYYADSVKGRFTISRDNAKNTVYLQMNSLKPEDTAVYYCAAPRARIGGSYDYWGQGTQVTGSS", "polyreactivity (PSR sort gate)": "high polyreactivity"}, {"sequence": "QVQLVESGGGLVQAGGSLRLSCAASGRTFSVYAMGWYRQAPGKESELVAGITGNGGSTYYADSVKGRFTISRDNAKNTVYLQMNSLKPEDTAVYYCATAYWDIITRGEYGYWGQGTQVTVSS", "polyreactivity (PSR sort gate)": "low polyreactivity"}, {"sequence": "QVQLVESGGGLVQAGGSLRLSCAASGSIFDIYGMGWYRKAPGKERELVASISGGAGSTNYADSVKGRFTISRDNAKNTVYLQMNSLKPEDTAVYYCAAEVYVPDYFQHKFDVEYEYWGQGTQVTVSS", "polyreactivity (PSR sort gate)": "low polyreactivity"}, {"sequence": "QVQLVESGGGLVQAGGSLRLSCAASGRTFAKYAMGWYRQAPGKERELVASISGRGTNTYYADSVKGRFTISRDNAKNTVYLQMNSLKPEDTAVYYCAATYVYPYRDSHYYYWGQGTQVTVSS", "polyreactivity (PSR sort gate)": "high polyreactivity"}, {"sequence": "QVQLVESGGGLVQAGGSLRLICAASGITLPIYAMGWYRQAPGKERELVATISQRDARTYYADSVKGRFTISRDNAKNTVYLQMNSLKPEDTAVYYCARGYKKSVQRFEYWGQGTQVTVSS", "polyreactivity (PSR sort gate)": "high polyreactivity"}, {"sequence": "QVQLVESGGGLVQAGGSLRLSCAASGRIFSYYAMGWYRQAPGKERELVAAISRSGVRTYYADSVKGRFTISRDNAKNTVYLQMNSLKAEDTAVYYCAASGKRFAYIKGRSRPAYGYDYWGQGTQVTVSS", "polyreactivity (PSR sort gate)": "high polyreactivity"}, {"sequence": "QVHLVESGGGLVQAGGSLRLSCAASGLTFHVYAMGWYRQAPGKERELVAAISWSGGSTYYADSVKGRFTISRDNAKNTVYLQMNSLKPEDTAVYYCAAESLSQGIWYDYWGQGTQVTVSS", "polyreactivity (PSR sort gate)": "high polyreactivity"}, {"sequence": "QVQLVESGGGLVQAGGSLRLSCAASGSIFLAYAMGWYRQAPGKERELVAAITSGGGRTYYADSVKGRFTISRDNAKNTVYLQMNSLKPEDTAVYYCAASYRAGQMWYDYWGQGTQVTVSS", "polyreactivity (PSR sort gate)": "high polyreactivity"}, {"sequence": "QVQLVESGGGLVQAGGSLRLSCAASGSIFAAYTMGWYRQAPGKERELVAAISVSTVSTYYADSVKGRFTISRDNAKNTVYLHMNSLKPEDTAVYYCNADATDSYPEKDDHDSWGQGTQVTVSS", "polyreactivity (PSR sort gate)": "low polyreactivity"}, {"sequence": "QVQLVESGGGLVQAGGSLRLSCAASGFIFGYYAMGWYRQAPGKERELVAAITSGGSTYYADSVKGRFTISRDNAKNTVYLQMNSLKPEDTAVYYCAAGWWYYLHMDYWGQGTQVTVSS", "polyreactivity (PSR sort gate)": "high polyreactivity"}, {"sequence": "QVQLVESCGGLVQAGGSLRLSCAASGFTFPYYTMGWYRQAPGKERELVATITGGGSTNYADSVKGRFTISRDNAKNTVYLQKNSLKPEDTAVYYCAAKRWSGYGYYGWYDYWGQGTQVTVSS", "polyreactivity (PSR sort gate)": "high polyreactivity"}, {"sequence": "QVQLVESGGGLVQAGGSLRLSCAASGRIFRYYAMGWYRQAPGKERELVAAISGSGGSTYYADSVKGRFTISRDNAKNTVYLQMNSLKPEDTAVYYCNARYRIPSGEGDHWGQGTQVTVSS", "polyreactivity (PSR sort gate)": "low polyreactivity"}, {"sequence": "QVQLVESGGGLVQAGGSLRLSCAASGFTFYRYAMGWYRQAPGQEREVVAAIRKSGGSTYYADSVKGRFTISRDNAKTTVYLQMNSLKPEDTAVYYCAKRYATDGFGYWGQGTQVTVSS", "polyreactivity (PSR sort gate)": "high polyreactivity"}, {"sequence": "QVQLVESGGGLVQAGGSLRLSCAASGYTFFYMGWYRQAPGKEREFVAVITYSGGSTYYADSVKGRFTISRDNAKNTVYLQMNSLKPEDTAVYYCAAAVWHYGRPGYLDSGYDYWGQGTQVTVSS", "polyreactivity (PSR sort gate)": "low polyreactivity"}, {"sequence": "QVQLVESGGPLVQAGGSLRLICAASGRTFYYNAKGWYRQAPGKDRELVAAITWSGGGTYYADSVKGRFTISRDNAKNTDYLQMNSLKPEDTAFYYCAAEDWSIEYEYWGQGTQVTVSS", "polyreactivity (PSR sort gate)": "high polyreactivity"}, {"sequence": "QVQLVETGGGLVQAGGSLRLSCAASGSTFVYYAMGWYRQAPGKERELVAAISSGGNTKYADSVKGRFTISRDNAKNTVYLQMNSLKPEDTEVYYCARESQSYYDHDYWGQVTQVTVSS", "polyreactivity (PSR sort gate)": "low polyreactivity"}, {"sequence": "QVQLVESGGGLVQAGGSLRLSCAASGSIFVPYAMGWYRQAPGKERELVAGINWSSGRTYYADSVKGRFTISRDNAKNTVYLQMNSLKPEDTAVYYCAAEKYTTYSFYHVAYDYWGQGTQVTVSS", "polyreactivity (PSR sort gate)": "high polyreactivity"}, {"sequence": "QVQLVESGGGLVQAGGSLRLSCAASGSTFGYYAMGWYRQAPGKERELVAAISYSGGSTYYADSVKGRFTISRDNAKNTVYLQMNSLKPEDTAVYYCAARLTRQMYYWGQGTQVTVSS", "polyreactivity (PSR sort gate)": "high polyreactivity"}, {"sequence": "QVQLVESGGGLVQAGGSLRLSCAASGNIFSYYAIGSYRHAPRKEREFVAANDWNGGTTYYADSVKGRFTISRDNAKNTVYLQMNSLKPEDTAVYYCAAEYGTWYIPEGEYWGQGTQVTVSS", "polyreactivity (PSR sort gate)": "high polyreactivity"}, {"sequence": "QVQLVESGGGLVQAGGSLRLSCAASGYTFGYYAMGWYRQAPGKERELVAAISYSGGNTYYADSVKGRFTISRDNAKNTVYLQMNSLKPEDTAVYYCNKRYWVRTGKVSSYAYWGQGTQVTVSS", "polyreactivity (PSR sort gate)": "high polyreactivity"}, {"sequence": "QVQLVESGGGLVQAGGSLRLSCAASGLTFGTYAMGWYRPAPGKERELVAAIRSGGSTNYADSVKGRFTISRDNAKNTVYLQMNSLKPEDTAVYYCAKRYYWDRYYYWGQGTQVTVSS", "polyreactivity (PSR sort gate)": "high polyreactivity"}, {"sequence": "QVQLVESGGGLVQAGGSRRLSCAASGSTFYGYAMGWYRQAPGKEREFVAAITTSGGSTYYADSVKGRFTISRDNAKNTVYLQMNSLKPEDTAVYYCDADAPSWYDRQYDYWGQGTQVTVSS", "polyreactivity (PSR sort gate)": "low polyreactivity"}, {"sequence": "QVQLVESGGGLVQAGGSLRLSCAASGSTFIANAMGWYRQAPGKERELVAAISASGDSTYYADSVKGRFTISRDNAKNTVYLQMNSLKPEDTAVYYCAADTSVHRHDYWGQGTQVTVSS", "polyreactivity (PSR sort gate)": "low polyreactivity"}, {"sequence": "QVQLVESGGGLVQAGGSLRLSCAASGITFRSYAMGWYRQAPGKERELVAAISQSGTSTYYADSVKGRFTISRDNAKNTVYLQMNSLKPEDTAVYYCAASYYLKLRRRRYDYWGQGTQVTVSS", "polyreactivity (PSR sort gate)": "high polyreactivity"}, {"sequence": "QVQLVESGGGLVQAGGSLRLSCAASGITFNQYAMGWYRQAPGKERELVARITKRGGSTYYADSVKGRFTISRDNAKNTVYLQMNSLKPEDTAVYYCAARTYYQEYDYWGQGTQVTVSS", "polyreactivity (PSR sort gate)": "high polyreactivity"}, {"sequence": "QVQLVESGGGLVQAGGSLRLSCAASGSTFKSYAMGWYRQAPGKERELVAAITHRGSTYYADSVKGRFTISRDNAKNTVDLQMNSLKPEDTAVYYCNVRRIGNGRRVDYWGQGTQVTVSS", "polyreactivity (PSR sort gate)": "high polyreactivity"}, {"sequence": "QVQLVESGGGLVQAGGSLRLSCAASGRTFRNYAMGWYRQAPGKERELVAAISRSGGITYYADSVKGRFTISRDNSKNTVYLQMNSLKPEDTAVYYCAARHTYQGPGTYPMFYWGQGTQVTVSS", "polyreactivity (PSR sort gate)": "high polyreactivity"}, {"sequence": "QVQLVESGGGLVQAGGSLRLSCAASGSTYRIYAMGWYRQAPGKERELVAAITRSGGSTYYADSVKGRFTISRDNAKNTVYLQMNSMKPEDTAVYYCNRRGAYPAKYDYWGQGTQVTVSS", "polyreactivity (PSR sort gate)": "high polyreactivity"}, {"sequence": "QVQLVESGGGLVQAGGSLRLSCAASGFIDYDNAMGWYRQAPGKERELVAAITSGGSTYYADSVKGRFTISRDNAKNTVYLQMNSLKPEDTAVYYCARESGYRAYEIQFYYWGQGTQVTVSS", "polyreactivity (PSR sort gate)": "high polyreactivity"}, {"sequence": "QVQLVESGGGLVQAGGSLRLSCPASGSILYYYTMGWYRQAPGKERELVAAITYSGGSSYYADSVKGRFTISRDNAKNTVYLQMNSLKPEDTAVYYCAAAHSNRGVRKWEPLYFWGQRTQVTVSS", "polyreactivity (PSR sort gate)": "low polyreactivity"}, {"sequence": "QVQLVESGGGLVQAGGSLRLSCAASGSTFGFYAMGWYRQAPGKERELVAAISSSGSTYYADSVKGRFTISRDNAKNTVYLQMISLKPEDTAVYYCAAQPGYYDYDYWGQGTQVTVSS", "polyreactivity (PSR sort gate)": "low polyreactivity"}, {"sequence": "QVQLVESGGGLVQAGGSLRLSFAASGLIFGYNAMGWYRQAPGTERELVAAISRRGTSTYYADSVKGRFTISRDNAKNTVYLQMNSLKPEDTAVYYCATYGVNPPGVEEYNYWGQGTQVTVSS", "polyreactivity (PSR sort gate)": "high polyreactivity"}, {"sequence": "QVQLVEAGGGLVQAGGSLRLTCAASVRTFTGYAMGCYRQAPGTERELVAAMTLSGGSTYYADSVKGRFTISRDNAKNTVYLQMNSLKPEDTAVFYCAAKWWHFYPYDYWGQGTQVTVSS", "polyreactivity (PSR sort gate)": "high polyreactivity"}, {"sequence": "QVQLVESGGGLVQAGGSLRLSCAASGRIFGGYAMGWYRQAPGKERELVAAITSSGSTNYADSVKGRFTISRDNAKNTVYLQMNSLKPEDTAVYYCATDFKTVYYWWGMDYWGQGTQVTVSS", "polyreactivity (PSR sort gate)": "low polyreactivity"}, {"sequence": "QVQLVESGGGLVQAGGSLRISCAASGSTYRKYTMGWYRQAPGNERDLVATISWSGGSTNYADSVKGRFTISRDNAKTIVYLQMISLKPDDTAVYYCNAYVSPRYRGSRYYYWGQGTQVTVSS", "polyreactivity (PSR sort gate)": "high polyreactivity"}, {"sequence": "QVQLVESGGGLVQAGGSLRLSCAASGFTFRNYAMGWYRQAPGKERELVAAISKRGGNTYYADSVKGRFTISRDNAKNTVYLQMNSLKPEDTAVYYCAAQRYTGQGSGYGYWGQGTQVTVSS", "polyreactivity (PSR sort gate)": "high polyreactivity"}, {"sequence": "QVQLVESGGGLVQAGGSLRLSCAASGFTFYRNAMGWYRQAPGKERELVAAITRAGSTYYADSVKGRFTISRDNAKNTVYLQMNSLKPEDTAVYYCFDMSNRYAVRYDYWGQGTQVSVSS", "polyreactivity (PSR sort gate)": "high polyreactivity"}, {"sequence": "QVQLVESGGGLVQAGGSLRLSCAASGRTFTRYVMGWYRQAPGKESELVAVISSGGRTYYADSVKGRFTISRDNAKNTVYLQMNSLKPEDTAVYYCAAVTHPAWAVEYDYWGQGTQVTVSS", "polyreactivity (PSR sort gate)": "high polyreactivity"}, {"sequence": "QVQLVESGGGLLQAGGSLRLSCAASGRILFSYAMGWYRQAPGKERELVATISSGGRTNYADSVKGRFTISRDNAKNTVYLQMNSLKPEDTAVYYCNTEYLVWYAYDYGGQGTQVTVSS", "polyreactivity (PSR sort gate)": "low polyreactivity"}, {"sequence": "QVQLVESGGGLVQAGGSLRLSCAASGRIFDTNVMGWYRQAPGKERELVAAISSGGSTYYADSVKGRFTISRDNAKNTVYLQMNSLKPEDTAVYFCAAESRTSRARRYYWGQGTQVTVSS", "polyreactivity (PSR sort gate)": "high polyreactivity"}, {"sequence": "QVQLVESGGGLVQAGGSLRLSCAASGFTFYLYAMGWYRQAPGKERELVAAITGRGTRTYYADSVKGRFTISRDNAKNTVYLQMNSLKPEDTAVYYCATGGANVDGDAYDYWGQGTQVTVSS", "polyreactivity (PSR sort gate)": "high polyreactivity"}]}]}
